# According to IntAct's records for PubMed 20739938:
# B1: Regulator of chromosome condensation (Homo sapiens), P18754 (parent)
# chain: MSPKRIAKRRSPPADAIPKSKKVKVSHRSHSTEPGLVLTLGQGDVGQLGLGENVMERKKPALVSIPEDVVQAEAGGMHTVCLSKSGQVYSFGCNDEGALGRDTSVEGSEMVPGKVELQEKVVQVSAGDSHTAALTDDGRVFLWGSFRDNNGVIGLLEPMKKSMVPVQVQLDVPVVKVASGNDHLVMLTADGDLYTLGCGEQGQLGRVPELFANRGGRQGLERLLVPKCVMLKSRGSRGHVRFQDAFCGAYFTFAISHEGHVYGFGLSNYHQLGTPGTESCFIPQNLTSFKNSTKSWVGFSGGQHHTVCMDSEGKAYSLGRAEYGRLGLGEGAEEKSIPTLISRLPAVSSVACGASVGYAVTKDGRVFAWGMGTNYQLGTGQDEDAWSPVEMMGKQLENRVVLSVSSGGQHTVLLVKDKEQS
# Variants of: B1
# Settings: with h2b11, P02281
row,Variant,effect of a mutation on the interaction
1,MSPKRIAKRRSPPADAIPKSKKVKVSHRSHSTEPGLVLTLGQGDVGQLGLGENVMERKKPALVSIPEDVVQAEAGGMHTVCLSKSGQVYSFGCNDEGALGRDTSVEGSEMVPGKVELQEKVVQVSAGDSHTAALTDDGRVFLWGSFRDNNGVIGLLEPMKKSMVPVQVQLDVPVVKVASGNDHLVMLTADGDLYTLGCGEQGQLGRVPELFANRGGRQGLERLLVPKCVMLKSRGSAGHVRFQDAFCGAYFTFAISHEGHVYGFGLSNYHQLGTPGTESCFIPQNLTSFKNSTKSWVGFSGGQHHTVCMDSEGKAYSLGRAEYGRLGLGEGAEEKSIPTLISRLPAVSSVACGASVGYAVTKDGRVFAWGMGTNYQLGTGQDEDAWSPVEMMGKQLENRVVLSVSSGGQHTVLLVKDKEQS [R237A],disrupting interaction
2,MSPKRIAKRRSPPADAIPKSKKVKVSHRSHSTEPGLVLTLGQGDVGQLGLGENVMERKKPALVSIPEDVVQAEAGGMHTVCLSKSGQVYSFGCNDEGALGRDTSVEGSEMVPGKVELQEKVVQVSAGDSHTAALTDDGRVFLWGSFRDNNGVIGLLEPMKKSMVPVQVQLDVPVVKVASGNDHLVMLTADGDLYTLGCGEQGQLGRVPELFANRGGRQGLERLLVPKCVMLASRGSRGHVRFQDAFCGAYFTFAISHEGHVYGFGLSNYHQLGTPGTESCFIPQNLTSFKNSTKSWVGFSGGQHHTVCMDSEGKAYSLGRAEYGRLGLGEGAEEKSIPTLISRLPAVSSVACGASVGYAVTKDGRVFAWGMGTNYQLGTGQDEDAWSPVEMMGKQLENRVVLSVSSGGQHTVLLVKDKEQS [K232A],disrupting interaction
3,MSPKRIAKRRSPPADAIPKSKKVKVSHRSHSTEPGLVLTLGQGDVGQLGLGENVMERKKPALVSIPEDVVQAEAGGMHTVCLSKSGQVYSFGCNDEGALGRDTSVEGSEMVPGKVELQEKVVQVSAGDSHTAALTDDGRVFLWGSFRDNNGVIGLLEPMKKSMVPVQVQLDVPVVKVASGNDHLVMLTADGDLYTLGCGEQGQLGRVPELFANRGGRQGLERLLVPKCVMLASAGSAGHVRFQDAFCGAYFTFAISHEGHVYGFGLSNYHQLGTPGTESCFIPQNLTSFKNSTKSWVGFSGGQHHTVCMDSEGKAYSLGRAEYGRLGLGEGAEEKSIPTLISRLPAVSSVACGASVGYAVTKDGRVFAWGMGTNYQLGTGQDEDAWSPVEMMGKQLENRVVLSVSSGGQHTVLLVKDKEQS [K232A;R234A;R237A],disrupting interaction
4,MSPKRIAKRRSPPADAIPKSKKVKVSHRSHSTEPGLVLTLGQGDVGQLGLGENVMERKKPALVSIPEDVVQAEAGGMHTVCLSKSGQVYSFGCNDEGALGRDTSVEGSEMVPGKVELQEKVVQVSAGDSHTAALTDDGRVFLWGSFRDNNGVIGLLEPMKKSMVPVQVQLDVPVVKVASGNDHLVMLTADGDLYTLGCGEQGQLGRVPELFANRGGRQGLERLLVPKCVMLKSAGSRGHVRFQDAFCGAYFTFAISHEGHVYGFGLSNYHQLGTPGTESCFIPQNLTSFKNSTKSWVGFSGGQHHTVCMDSEGKAYSLGRAEYGRLGLGEGAEEKSIPTLISRLPAVSSVACGASVGYAVTKDGRVFAWGMGTNYQLGTGQDEDAWSPVEMMGKQLENRVVLSVSSGGQHTVLLVKDKEQS [R234A],disrupting interaction
